Where “and” joins values, the source holds several entries; their conditions need not be identical. Equal entries are not always repeated.
Biological target: ACE (angiotensin-I converting enzyme) from rabbit lung (rabbit) (UniProt P12822)
UniProt P12822, sequence (P12822 34-1310): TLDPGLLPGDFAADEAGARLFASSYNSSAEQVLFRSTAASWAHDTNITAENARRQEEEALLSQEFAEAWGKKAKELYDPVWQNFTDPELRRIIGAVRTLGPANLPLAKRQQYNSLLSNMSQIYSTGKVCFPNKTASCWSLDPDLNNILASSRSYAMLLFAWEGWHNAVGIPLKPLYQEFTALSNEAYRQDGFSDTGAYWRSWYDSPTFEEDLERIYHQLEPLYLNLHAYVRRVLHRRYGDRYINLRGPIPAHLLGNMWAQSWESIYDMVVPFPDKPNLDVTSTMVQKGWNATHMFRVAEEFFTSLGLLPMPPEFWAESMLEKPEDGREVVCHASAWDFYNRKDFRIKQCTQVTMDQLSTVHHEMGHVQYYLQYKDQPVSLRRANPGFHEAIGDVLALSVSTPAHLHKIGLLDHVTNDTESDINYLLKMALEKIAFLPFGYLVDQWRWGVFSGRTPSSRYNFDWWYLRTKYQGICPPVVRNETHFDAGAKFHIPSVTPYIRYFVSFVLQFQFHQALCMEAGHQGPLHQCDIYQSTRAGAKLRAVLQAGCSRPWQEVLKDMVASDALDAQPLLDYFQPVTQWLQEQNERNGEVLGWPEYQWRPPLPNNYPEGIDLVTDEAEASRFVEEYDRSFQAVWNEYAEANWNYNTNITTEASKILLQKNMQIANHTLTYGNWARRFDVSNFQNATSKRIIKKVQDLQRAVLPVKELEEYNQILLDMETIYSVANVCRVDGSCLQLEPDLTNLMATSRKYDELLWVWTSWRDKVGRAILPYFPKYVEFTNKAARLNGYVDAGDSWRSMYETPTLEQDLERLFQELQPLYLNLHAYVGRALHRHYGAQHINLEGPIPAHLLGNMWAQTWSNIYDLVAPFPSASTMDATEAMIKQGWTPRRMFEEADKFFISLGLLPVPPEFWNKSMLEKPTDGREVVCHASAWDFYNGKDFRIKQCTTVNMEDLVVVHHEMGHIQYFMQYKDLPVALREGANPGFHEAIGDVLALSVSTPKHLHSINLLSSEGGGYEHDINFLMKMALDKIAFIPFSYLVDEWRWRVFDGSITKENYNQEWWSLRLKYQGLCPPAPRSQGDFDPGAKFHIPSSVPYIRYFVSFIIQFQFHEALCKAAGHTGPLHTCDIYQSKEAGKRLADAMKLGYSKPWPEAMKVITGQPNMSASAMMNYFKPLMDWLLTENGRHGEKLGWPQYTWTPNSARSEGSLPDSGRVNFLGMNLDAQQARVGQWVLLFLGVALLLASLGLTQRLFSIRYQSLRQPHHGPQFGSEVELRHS

ACE inhibition (FAPGG hydrolysis, absorbance at 340 nm), IC50: 0.06 mg/ml and 0.144 mM
Substance: IER tripeptide

Reference: paper PMC7055321
